Measured values published in publication PMC7749410.

Key:
[1] = biological target: cc-del0 (cc-C99 18-99) (Saccharomyces cerevisiae | human); test: native gel or EMSA
[2] = biological target: cc-del0 G29C (Saccharomyces cerevisiae | human); test: cross-linking
[3] = biological target: cc-del1 (cc-C99 19-99) (Saccharomyces cerevisiae | human); test: native gel or EMSA
[4] = biological target: cc-del2 (cc-C99 20-99) (Saccharomyces cerevisiae | human); test: native gel or EMSA
[5] = biological target: cc-del2 G29C (Saccharomyces cerevisiae | human); test: cross-linking
[6] = biological target: cc-del3 (cc-C99 21-99) (Saccharomyces cerevisiae | human); test: native gel or EMSA
[7] = biological target: cc-del3 G29C (Saccharomyces cerevisiae | human); test: cross-linking
[8] = biological target: cc-del4 (cc-C99 22-99) (Saccharomyces cerevisiae | human); test: native gel or EMSA
[9] = biological target: cc-del4 G37C (Saccharomyces cerevisiae | human); test: cross-linking
[10] = biological target: cc-del5 (cc-C99 23-99) (Saccharomyces cerevisiae | human); test: native gel or EMSA
[11] = biological target: cc-del6 (cc-C99 24-99) (Saccharomyces cerevisiae | human); test: native gel or EMSA
[12] = biological target: cc-del6 G29C (Saccharomyces cerevisiae | human); test: cross-linking
[13] = biological target: cc-del7 (cc-C99 25-99) (Saccharomyces cerevisiae | human); test: native gel or EMSA
[14] = biological target: cc-del7 G29C (Saccharomyces cerevisiae | human); test: cross-linking
[15] = biological target: cc-del7 G37C (Saccharomyces cerevisiae | human); test: cross-linking
[16] = biological target: cc-del8 (cc-C99 26-99) (Saccharomyces cerevisiae | human); test: native gel or EMSA
[17] = biological target: cc-del9 (cc-C99 27-99) (Saccharomyces cerevisiae | human); test: native gel or EMSA
[18] = biological target: cc-del9 G29C (Saccharomyces cerevisiae | human); test: cross-linking

With cc-del0 (cc-C99 18-99) the stoichiometry N [1] was 2.

cc-del0 G29C gave a stoichiometry N [2] of 2.

Substance cc-del1 (cc-C99 19-99) has a stoichiometry N [3] of 2.

cc-del2 (cc-C99 20-99) showed a stoichiometry N [4] of 2.

In the case of cc-del2 G29C, the stoichiometry N [5] is reported as 2.

For cc-del3 (cc-C99 21-99), the stoichiometry N [6] was 2.

cc-del3 G29C was tested, and the stoichiometry N [7] was 2.

For cc-del4 (cc-C99 22-99), the stoichiometry N [8] was 2.

Work on cc-del4 G37C yielded a stoichiometry N [9] of 2.

Work on cc-del5 (cc-C99 23-99) yielded a stoichiometry N [10] of 2.

With cc-del6 (cc-C99 24-99) the stoichiometry N [11] was 2.

With cc-del6 G29C the stoichiometry N [12] was 2.

cc-del7 (cc-C99 25-99) gave a stoichiometry N [13] of 2.

cc-del7 G29C showed a stoichiometry N [14] of 2.

For cc-del7 G37C, the stoichiometry N [15] was 2.

Work on cc-del8 (cc-C99 26-99) yielded a stoichiometry N [16] of 2.

cc-del9 (cc-C99 27-99) was tested, and the stoichiometry N [17] was 2.

With cc-del9 G29C the stoichiometry N [18] was 2.
